Test results as given in publication PMC12363821 (bioRxiv, 2025).
Positions count from the first letter of the chain named.

B1: Recombinant human TIGIT-Immunoglobulin chimeric protein, Q495A1 22-141 (Fc fusion)
chain: MMTGTIETTGNISAEKGGSIILQCHLSSTTAQVTQVNWEQQDQLLAICNADLGWHISPSFKDRVAPGPGLGLTLQSLTVNDTGEYFCIYHTYPDGTYTGRIFLEVLESSVAEHGARFQIP
modifications: here or on the partner: Alexa Fluor 594 (Zenon human IgG labeling kit)
B2: Recombinant human TIGIT-Immunoglobulin chimeric protein (Fc fusion)
chain: B1 chain
modifications: Alexa Fluor 594 (Zenon human IgG labeling kit)
B3: Recombinant human CD226-Immunoglobulin chimeric protein (Fc fusion)
chain: EEVLWHTSVPFAENMSLECVYPSMGILTQVEWFKIGTQQDSIAIFSPTHGMVIRKPYAERVYFLNSTMASNNMTLFFRNASEDDVGYYSCSLYTYPQGTWQKVIQVVQSDSFEAAVPSNSHIVSEPGKNVTLTCQPQMTWPVQAVRWEKIQPRQIDLLTYCNLVHGRNFTSKFPRQIVSNCSHGRWSVIVIPDVTVSDSGLYRCYLQASAGENETFVMRLTVAEGKTDNQYTLFVA
modifications: Alexa Fluor 594 (Zenon human IgG labeling kit)

How the values were obtained:
Test in all cases: flow cytometry on cells
[1] = target: T1, CD155 WT (wild-type CD155; poliovirus receptor, PVR) (human), P15151; details: remark: other sources report otherwise
T1 chain: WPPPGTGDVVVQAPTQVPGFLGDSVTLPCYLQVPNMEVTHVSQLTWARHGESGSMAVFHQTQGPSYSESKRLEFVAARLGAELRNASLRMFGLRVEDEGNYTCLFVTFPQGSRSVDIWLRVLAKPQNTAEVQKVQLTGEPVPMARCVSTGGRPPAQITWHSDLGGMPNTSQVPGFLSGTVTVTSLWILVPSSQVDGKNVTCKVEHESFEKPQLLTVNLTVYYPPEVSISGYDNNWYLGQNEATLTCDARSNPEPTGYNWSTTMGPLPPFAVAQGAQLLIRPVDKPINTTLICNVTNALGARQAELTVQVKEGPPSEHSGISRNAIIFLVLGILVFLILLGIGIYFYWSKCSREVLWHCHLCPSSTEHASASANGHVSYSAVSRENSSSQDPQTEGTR

[2] = target: T2, CD155 Mut (high-affinity mutant variant of CD155, rs1058402, G>A; Ala67Thr) (human, UniProt P15151 21-417, Ala67Thr)
T2 sequence: T1 chain with A47T

[3] = target: T2, CD155 Mut (high-affinity mutant variant …); remark: listed apart in the source

Binder	fold binding (AUC) against parental Mel1 hPSC [1] [fold]	fold binding (AUC) against the CD155 WT sBC line [2] [fold]	fold binding (AUC) against parental Mel1 hPSC [3] [fold]	fold binding (AUC) against the CD155 WT hPSC line [3] [fold]
B1	4.25	–	–	–
B2	–	1.37	6.47	1.52
B3	–	1.29	–	–
